Five molecules from US8329882B2, “Genetic control of mammalian cells with synthetic RNA regulatory systems” (California Institute of Technology, priority 2009, dated 2012) can be followed below.

“Also recorded” adds a separate entry of the source.

The subject of series [1] is CTLL-2 cells. The following applies: 100 U/ml IL-2 every 48 hours; cell count every 24 hours.
Protocol: Cells were cultured in media containing the indicated concentration of (a) theophylline and (b) tetracycline.
In the experiment shown in FIG. 19, 100 U/ml of IL-2 was fed to all cultures every 48 hours, and cell count was obtained every 24 hours by flow cytometry.
For another series, the system named is JAK-STAT pathway. The experiment in a line: Western blot analysis of phosphorylated STAT5 levels. The following applies: CffLuc cell line lacking the ribozyme switch system; 500 μM theophylline. It counts as cell-based, mouse. The procedure: Additional assays on a clonal cell line harboring three copies of L2bulge9 (clone 1264-48) were performed to verify the mechanism of growth regulation and examine the dynamic behavior of the regulatory system to variations in theophylline availability. Cell cultures were grown for one week in the presence of 500 μM theophylline and continued for a second week in the absence of theophylline. Theophylline was reintroduced for another four days at the end of the study. […] CD19 levels returned to basal levels within 48 hours of theophylline removal from the culture. The theophylline-responsive increase in CD19 expression was repeated upon reintroduction of theophylline to culture media. IL-15 expression patterns were verified at the transcript level through quantitative RT-PCR (Example 21, FIG. 8). […]
Lysate samples were thawed on ice and a standard Bradford assay using Protein Assay Dye (Bio-Rad) was performed with a BSA standard to determine protein concentrations. […] Membranes stained for […] and p-STAT5 were washed 4 times with 100 ml TTBS and once with 100 ml TBS before fluorescent images were acquired and quantified with the Odyssey Infrared Imaging System (Li-Cor). Integrated band intensity was calculated with the Odyssey system using blank gel areas surrounding each band for background subtraction. […]
(A western blot detects proteins with antibodies after separation by electrophoresis.)

The test system of series [2] is CTLL-2 cells. The series can be described thus: Transient transfection in CTLL-2 cells, viability and fluorescence by flow cytometry. It counts as cell-based, mouse. In general terms: In flow cytometry, cells or beads pass a laser one at a time.
The test system of series [3] is primary human TCM cells. The experiment in a line: TCM cell apoptosis time-course study (annexin V / SYTOX AAD / CD19 staining). It counts as cell-based. The following applies: 500 μM theophylline, five days, compared to the inactive ribozyme control. The method, then: (§1) Since short production timeline and streamlined processing may be important in clinical applications, characterization studies of TCM cells were performed on bulk transduced, unsorted populations to examine the robustness of the regulatory system in the scenario in which no population refinement was performed. Transduced cells were cultured in the presence and absence of 500 μM theophylline for five days, with daily monitoring of CD19 levels and cell viability by staining with CD19 antibody, annexin V, and SYTOX AAD dead cell stain. […] TCM cells stably expressing the cd19-t2a-il15-L2bulge9(3×) construct were cultured in the presence and absence of 500 μM theophylline. […] Values reported represent mean±s.d. from triplicate samples.
On day 12 post stimulation, each cell line was washed twice with HBSS and used to seed six 25-ml cultures at 0.45×10^6 cells/ml. […] Fluorescence data were obtained using a Quanta Cell Lab Flow Cytometer with both a 488-nm laser and an UV arc lamp. Pacific Blue, PE, and SYTOX AAD were detected through 465/30-nm band pass, 575/30-nm band pass, and 610-nm long pass filters, respectively, Only SYTOX AAD-cells were included in data analyses. The population of live CD19+ cells was determined by gating for annexin V−/PE+ cells and the population of apoptotic CD19+ cells was determined by gating for annexin V+/PE+ cells.

In series [4] the test system is primary human TCM cells. The experiment in a line: TCM cell CD19 expression time-course study. It counts as cell-based. The following applies: 500 μM theophylline, five days; compared to the inactive ribozyme control; three copies of switch. The procedure:
as §1
On day 12 post stimulation, each cell line was used to seed four 25-ml cultures at 0.2×10^6 cells/ml. 500 μM theophylline was added to 2 flasks of each cell line, and no IL-2 or IL-15 was fed to any flask. Two aliquots from each culture were sampled every 24 hours for staining with PE-conjugated CD19 antibody (Beckman Coulter; Fullerton, Calif.). Fluorescence data were obtained with a Quanta Cell Lab Flow Cytometer using a 488-nm laser and a 575/30-nm band-pass filter.

For series [5], the system named is CTLL-2 cells. The experiment in a line: In vitro growth assay for stable CTLL-2 cell lines. It counts as cell-based, mouse. Conditions: 500 μM theophylline, without exogenous IL-2. The procedure:
Growth behavior of individual clones was characterized by culturing under various theophylline concentrations. […] In the experiment shown in FIG. 7, the cell lines were cultured at various theophylline concentrations, and cell growth was monitored by counting viable cells. Clones indicated as 1261-xx stably expressed cd19-tk-il15-L2bulge9(1x). Clone 1264-xx stably expressed cd19-tk-il15-L2bulge9(3×). Growth behaviors differ from clone to clone, as would be expected from non-site-specific integration of the transgene into the host chromosomes. Theophylline-responsive increase in cell growth is evident in fifteen of the sixteen tested clones, and the growth elevation is statistically significant for the sample set (P=0.0150, 0.0011, 0.0013 for 100 μM, 250 μM, and 400 μM, respectively, by Whitney-Mann U test).
CffLuc-pIL15 clones were cultured under regular conditions (RPMI 1640 media supplemented with 100 U/ml IL-2 every 48 hours, 0.2 mg/ml zeocin, no theophylline), washed twice with HBSS, and split into 5 identical aliquots in 6-well plates at approximately 0.01×10^6 cells/ml (4 ml/well). […] Cell density was calculated by dividing the number of detected live cells by the volume analyzed on the flow cytometer. […]

A further series deals with T-cell proliferation. The series can be described thus: In vivo T-cell proliferation study with biophotonic imaging of luciferase signal flux. Details: species or system NOD/scid-IL2(ko) mice. The method, then:
To verify in vivo functionality of the T-cell proliferation regulatory system, we examined several clonal cell lines for theophylline-dependent growth in mice over time. Select clones were encased in a hydrogel matrix that contained either 0 μM or 500 μM theophylline and injected into the flanks of NOD/SCID-γc^−/− mice. […] Flux measurements over a 9-day period indicate an average of 40% increase in the growth rate of clone 1264-48 in the presence of […] (n1=4, n2=6, P=0.038 by Mann-Whitney U test).
Cells were harvested by centrifugation at 1200 rpm at 4° C. for 10 min, washed twice with PBS, resuspended in PBS at a concentration of 2×10^6 cells/ml, and split into two 50 μl aliquots. […] In vivo growth of the injected cells was monitored by biophotonic imaging. […]
Animals received intraperitoneal (i.p.) injections of 4.29 mg per mouse of freshly prepared luciferin substrate (Caliper Life Sciences; Hopkinton, Mass.) suspended in 150 μl of PBS. […] Luciferase activity was analyzed through Living Image Software 3.1 from Xenogen to quantify tumor region flux (photons per second).
Statistical analysis was performed on growth rate data using the Mann-Whitney U test to calculate two-tailed P values. The doubling time of injected cells was calculated based on the total luciferase signal flux data collected over the course of each in vivo study. […]

In the case of `CN(C)[C@@H]1C(O)=C(C(N)=O)C(=O)[C@@]2(O)C(O)=C3C(=O)c4c(O)cccc4[C@@](C)(O)[C@H]3C[C@@H]12` [tetracycline], the “toxicity to CTLL-2 cells” value in the series on CTLL-2 cells [1] is recorded as “some toxicity”.
Turning to `Cn1c(=O)c2[nH]cnc2n(C)c1=O` [theophylline], the “nonspecific activation of JAK-STAT pathway” value in the series on JAK-STAT pathway is recorded as “did not nonspecifically activate the JAK-STAT pathway”. Also, the “toxicity to CTLL-2 cells” value in the series on CTLL-2 cells [1] is “some toxicity”.

B1: L2bulge18tc: tetracycline-responsive ribozyme switch, SEQ ID NO: 29 (nucleic acid)
chain: CTCGAGGCGATCGCAAACAAACAAAGCTGTCACCGGATGTGCTTTCCGGTCTGATGAGTCCGTTGTCCAAAACATACCAGATTTCGATCTGGAGAGGTGAAGAATTCGACCACCTGGACGAGGACGGAGGACGAAACAGCAAAAAGAAAAATAAAAATTAATTAATCTTGGGCCC
modifications: L2bulge18tc
B1: the “switch activity (fluorescence)” value with CTLL-2 cells [2] (tetracycline input, single- and multiple-copy switch systems) is reported as “tetracycline-responsive ON switch activity”.

B2: L2bulge9: theophylline-responsive ribozyme switch, SEQ ID NO: 28 (nucleic acid)
chain: CTCGAGGCGATCGCAAACAAACAAAGCTGTCACCGGATGTGCTTTCCGGTCTGATGAGTCCGTTGTCCAATACCAGCATCGTCTTGATGCCCTTGGCAGTGGATGGGGACGGAGGACGAAACAGCAAAAAGAAAAATAAAAATTTTTTTTTTAATTAATCTTGGGCCC
modifications: L2bulge9
On to B2, for which the “reduction in the apoptotic cell population” value in the series with primary human TCM cells [3] (apoptotic CD19+) is listed as “up to 54%”. Further, the “increase in the live cell population” value in the series on primary human TCM cells [3] (live CD19+) is given as “up to 24%”. Also, the “increase in CD19 expression levels” value in the series with primary human TCM cells [4] is on record as “up to 15%”. Further, the “switch control over cell viability and proliferation” value in the series with CTLL-2 cells [2] (cd19-tk-t2a-il15 transgene, theophylline) was “ON switch control over cell viability and proliferation”. The “basal knockdown (viability)” value in the series with CTLL-2 cells [2] (three and four copies of switch, egfp-t2a-il2, viability comparable to No IL-2 Control and sTRSV Ribozyme) is “Stringent knockdown”.

B3: inactive ribozyme: inactive, scrambled hammerhead ribozyme lacking an aptamer, SEQ ID NO: 30; cells expressing it serve as positive control (nucleic acid)
chain: CTCGAGGCGATCGCAAACAAACAAAGCTGTCACCGGATGTGCTTTCCGGTACGTGAGGTCCGTGAGGACAGAACAGCAAAAAGAAAAATAAAAATTTTTTTTTTAATTAATCTTGGGCCC
Regarding B3, the “growth rate in the presence of theophylline” value with CTLL-2 cells [5] was “decreased growth rate”. Also, the “change in in vivo growth rate in response to theophylline addition” value with T-cell proliferation (500 μM theophylline vs none, 9-day period) is recorded as “did not show statistically significant changes; also recorded: no statistically significant difference”. Besides, in the series with T-cell proliferation (regardless of theophylline availability (0 or 500 μM), 14-day study), the “in vivo T-cell proliferation” value is listed as “Uncontrolled T-cell proliferation”.
